Data taken from patent US6607709 (CURATORS OF THE UNIVERSITY OF MISSOURI, dated 2003).
Positions of bridges follow the written chain, without caps; N, C: chain ends. Non-standard residues stand in square brackets, D forms with d. Re(V)O = rhenium(V) oxo core coordinated by cysteine thiolates and amide nitrogens

B1: ReMSH (peptide)
peptide: CEHFRWCKPV
modifications: not fully specified; N-terminal acetyl; D-Phe at position 7 (α-MSH numbering); C-terminal amide; cyclized by a Re(V)O core coordinated by the thiolate sulfurs of Cys4 and Cys10 and the amide nitrogens of Trp9 and Cys10
notes: Nonradioactive rhenium complex of APOMSH; also called rhenium α MSH analog ReMSH; ReMSH complex
B2: ReCCMSH (peptide)
peptide: Ac-CCEH[dF]RWCKPV-NH2
modifications: bridge 1-2-8 via Re(V)O; not fully specified; printed as NAc-Cys-Cys-Glu-His-D-Phe-Arg-Trp-Cys-Lys-Pro-Val-NH2; also: Re(V)O complex via thiolates of Cys3, Cys4, Cys10 and amide N of Cys4
notes: Nonradioactive rhenium complex of the APOMSH analog with an additional N-terminal Cys (Cys3); also called ReCCMSH analog
B3: Cys^4,10, D-Phe^7-α-MSH4-13 (APOMSH) (peptide)
peptide: Ac-CEH[dF]RWCKPV-NH2
modifications: disulfide 1-7
SMILES: CC(=O)N[C@H]1CSSC[C@@H](C(=O)N[C@@H](CCCCN)C(=O)N2CCC[C@H]2C(=O)N[C@H](C(N)=O)C(C)C)NC(=O)[C@H](Cc2c[nH]c3ccccc23)NC(=O)[C@H](CCCNC(=N)N)NC(=O)[C@@H](Cc2ccccc2)NC(=O)[C@H](Cc2c[nH]cn2)NC(=O)[C@H](CCC(=O)O)NC1=O
notes: Synthetic cyclic α-MSH analog without metal; starting peptide for ReMSH; also called metal-free peptide

Assays:
[1] = target: T1, α-MSH receptor on B16-F1 murine melanoma cells (murine, UniProt Q01727 1-315); assay: cell-based or functional assay
T1 sequence (Q01727 whole entry): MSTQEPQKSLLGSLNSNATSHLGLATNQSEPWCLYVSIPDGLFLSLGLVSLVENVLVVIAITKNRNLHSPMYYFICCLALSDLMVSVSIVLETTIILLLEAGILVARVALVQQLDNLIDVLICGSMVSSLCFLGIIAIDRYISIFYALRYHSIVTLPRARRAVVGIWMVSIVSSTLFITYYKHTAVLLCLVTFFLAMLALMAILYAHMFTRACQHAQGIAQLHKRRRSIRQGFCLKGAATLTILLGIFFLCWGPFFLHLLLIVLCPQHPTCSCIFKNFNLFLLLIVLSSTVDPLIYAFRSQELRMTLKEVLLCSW

[2] = target: T1, α-MSH receptor on B16-F1 murine …; assay: cell-based or functional assay; remark: listed apart in the source
[3] = target: T1, α-MSH receptor on B16-F1 murine …; assay: competitive receptor binding on B16-F1 murine melanoma cells
Description: (§1) Quantitative receptor binding assays were carried out following a previously described method (Siegrist W., 1988; Sahm, U. G., 1994). […] The cells were rinsed with PBS, lysed with 1 M NaOH and counted in a 1275 minigamma gamma counter from LKB Wallac.
The ^99mTc- and ^188Re-labeled analogs of ReCCMSH were virtually inert to substitution in 10 mM Cys competition assays, while the ^99mTc- and ^188Re-labeled analogs of ReMSH were readily exchanged under the same assay conditions (Table 2). This increased stability of ReCCMSH probably resulted from the presence of an additional sulfur donor atom and from decreased backbone strain in the molecule due to the increased ring size. […] The ability of the ReCCMSH analog to stimulate melanin production was almost identical to APOMSH (Table 3).

[4] = target: T1, α-MSH receptor on B16-F1 murine …; assay: competitive receptor binding on B16-F1 murine melanoma cells, displacement of ^125I-[Nle4, D-Phe7]-α-MSH, 4° C., 8 hours
Description: as §1
The bioactivities of APOMSH and the ReMSH complex were assayed by measuring stimulation of melanin production by B16-F1 murine melanoma cells. The $EC50$ values for melanin synthesis by APOMSH and ReMSH were 2.6 ×10^-11 and 5.4 ×10^-10, respectively. […] Receptor binding assays were performed with APOMSH and ReMSH on B16-F1 murine melanoma cells.

Binder | fold decrease in the ability to stimulate melanin production compared to APOMSH [1] [fold] | EC50 (M), melanin production by B16-F1 murine melanoma cells [2] [M] | fold decrease in receptor binding affinity compared to APOMSH [3] [fold] | Ki [4] [nM] | fold higher receptor binding affinity than ReMSH [3] [fold]
B1 | ~20 | 5.4e-10 | ~100 | 66 | –
B2 | – | 3.5e-11 | – | 2.9 | ~25
B3 | – | 2.6e-11 | – | 0.68 | –
